These results are taken from publication PMC5062073, “Cellular uptake of a cystine-knot peptide and modulation of its intracellular trafficking” (Scientific Reports, 2016).

Data set [1] has as its target trypsin (UniProt P00760). Kind of data set: enzyme inhibition assay (trypsin proteolytic activity on a fluorogenic substrate); apparent; trypsin 2.3 pM, tosyl-GPR-AMC substrate 5 uM, activity measured for 2 h after pre-incubation of the peptides with protease for 1 h at room temperature.
The target of data set [2] is T1, trypsin (Bos taurus, UniProt P00760).
T1 construct: gene PRSS1
T1 sequence (P00760 24-246): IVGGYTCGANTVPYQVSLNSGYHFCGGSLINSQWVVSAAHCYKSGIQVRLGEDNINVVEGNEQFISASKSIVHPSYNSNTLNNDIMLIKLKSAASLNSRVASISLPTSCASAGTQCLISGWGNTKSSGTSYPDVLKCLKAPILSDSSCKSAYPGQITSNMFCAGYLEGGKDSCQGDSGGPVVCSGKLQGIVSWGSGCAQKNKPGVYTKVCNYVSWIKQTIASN
Nature of the data set: Trypsin enzymatic assay. It counts as biochemical. The method, then:
Assays were done as described earlier with slight modification. Briefly, normalized proteolytic activity of trypsin (2.3 pM) toward tosyl-GPR-AMC substrate (5 μM) was measured for 2 h after pre-incubation of the peptides with protease for 1 h at room temperature. The data were plotted and fitted using KaleidaGraph v3.6 software. Apparent […] (Ki^app) was determined from at least three independent measurements.

For data set [3] the following is noted: SGF with pepsin, pH 1.2, 37 °C, peptide 0.3 mg/ml, after several days; LC/MS, A214nm peak area vs internal standard. The method, then: Peptides were incubated at a concentration of 0.3 mg/ml in simulated gastric fluid at 37 °C for the indicated times. To prepare simulated gastric fluid, 2 g of sodium chloride, 43 mg of sodium thaurocholate, 16 mg of lecithin and 100 mg of pepsin were dissolved in 1 L of Milli-Q water (18.2 MΩ.cm^−1) and adjusted to pH 1.2 with 37% hydrochloric acid. At the indicated time points, 10 μl (3 μg) aliquots were removed from the reaction, quenched with 0.25 M NaOH and then mixed with 2.6 μg of the internal standard. Samples were immediately analyzed by analytical LC/MS (Agilent 1200 series) and the area under the A214nm peak was quantified.

Turning to “recombinant EETI-II (Ecballium elaterium trypsin inhibitor II) (peptide)”, in data set [1], the Ki stood at 160 pM.

The compound `CC[C@H](C)[C@@H]1NC(=O)[C@H](CCCNC(=N)N)NC(=O)[C@@H]2CCCN2C(=O)[C@@H](NC(=O)CNC(=O)[C@H](CO)NC(=O)CN)CSSC[C@@H]2NC(=O)CNC(=O)[C@H](C)NC(=O)[C@H](CC(C)C)NC(=O)[C@@H]3CSSC[C@@H](C(=O)NCC(=O)NCC(=O)N[C@@H](CC(N)=O)C(=O)N[C@@H](CO)C(=O)O)NC(=O)[C@H](Cc4ccccc4)NC(=O)CNC(=O)[C@H](CC(N)=O)NC(=O)[C@@H]4CCCN4C(=O)CNC(=O)[C@H](CSSC[C@H](NC(=O)[C@H](CCCNC(=N)N)NC(=O)[C@H](CCSC)NC(=O)[C@H](CC(C)C)NC1=O)C(=O)N[C@@H](CCCCN)C(=O)N[C@@H](CCC(N)=O)C(=O)N[C@@H](CC(=O)O)C(=O)N[C@@H](CO)C(=O)N[C@@H](CC(=O)O)C(=O)N3)NC(=O)[C@H](C(C)C)NC2=O` [rEETI-II] showed a Ki in data set [2] of 160 ± 10 pM. The “remaining in simulated gastric fluid” value in data set [3] is 50%. For the compound “Alexa488-labeled recombinant EETI-II (peptide)”, in data set [1], the Ki was 710 pM.
